According to PMC4998004, “aPKC Inhibition by Par3 CR3 Flanking Regions Controls Substrate Access and Underpins Apical-Junctional Polarization” (Developmental Cell, 2016):
Substitutions are numbered along the chain they refer to. Names may count otherwise. Each block holds one molecule with its values, some of them ahead of it. Residues, ends and D or L forms follow the SMILES beside them. No end group written: not given here.

Experiments:
[1] = biological target: T1, PKCιKD-2P (primed human PKC-iota kinase domain) (Homo sapiens, UniProt P41743, C595S); assay: In vitro kinase assay (ADP Quest), inhibition of phosphorylation of a model substrate peptide; type: biochemical; settings: Figures 1C, S5C
T1 construct: encoding residues 248–596 (GenBank: NM_002740.5); GST (followed by a 3C protease site) (N, cleaved yes); made in house; host or cells: Hi5 insect cells, baculovirus, co-infected with a PDK-1 virus
T1 sequence (P41743 248-596 C595S): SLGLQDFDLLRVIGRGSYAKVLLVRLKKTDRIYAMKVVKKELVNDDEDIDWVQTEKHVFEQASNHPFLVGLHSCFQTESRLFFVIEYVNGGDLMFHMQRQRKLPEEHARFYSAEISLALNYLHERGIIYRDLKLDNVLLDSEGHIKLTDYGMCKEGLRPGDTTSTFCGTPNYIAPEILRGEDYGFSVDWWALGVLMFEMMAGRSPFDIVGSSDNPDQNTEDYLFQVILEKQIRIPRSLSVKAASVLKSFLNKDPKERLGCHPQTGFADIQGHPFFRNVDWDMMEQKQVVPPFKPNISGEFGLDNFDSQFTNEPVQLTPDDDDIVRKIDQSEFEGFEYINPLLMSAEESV
Procedure: The ADP Quest kit (DiscoveRx) was used to determine the kcat app and KM app values for ATP against the PKCιKD-1P and PKCιKD-2P using a series of synthetic peptide substrates as described by [Kjaer et al. (2013)]. The reactions were measured every 2 min for 30 min in a 384-well plate using a Safire^2 plate reader (Tecan). The kinetic constants were determined by fitting the data to the Michaelis-Menten equation. Data are represented as mean ± SEM. Fluorescence anisotropy assays were performed to determine the KD for each peptide labeled with a fluorescein tag following standard protocols using a Safire^2 plate reader (Tecan). The anisotropy values were normalized and the KD was determined using non-linear regression. […]
(§1) The ADP Quest kit (DiscoveRx) was used to determine the kcat app and Km app values for ATP against the PKCι KD-1P and PKCι KD-2P. The assay uses a coupled reaction to convert ADP to a product that has a fluorescence excitation at 530 nm and emission at 590 nm. […]
peptide ([…]) related to the Nishikawa and co-workers consensus were also used in the study (Nishikawa et al., 1997). […] The reactions were measured every two minutes for 30 minutes in a 384-well plate using a Safire 2 plate reader (Tecan). The kinetic constants were determined by fitting the data to Michaelis–Menten equation using the graphics program Prism (GraphPad Prism, version 5.0d, GraphPad Software). […]

[2] = biological target: T1, PKCιKD-2P (primed human PKC-iota kinase domain); assay: In vitro kinase assay (ADP Quest), peptide as substrate, Michaelis-Menten kinetics; type: biochemical; settings: in vitro kinase assay
Procedure: The ADP Quest kit (DiscoveRx) was used to determine the kcat app and KM app values for ATP against the PKCιKD-1P and PKCιKD-2P using a series of synthetic peptide substrates as described by [Kjaer et al. (2013)]. The reactions were measured every 2 min for 30 min in a 384-well plate using a Safire^2 plate reader (Tecan). The kinetic constants were determined by fitting the data to the Michaelis-Menten equation. Data are represented as mean ± SEM. Fluorescence anisotropy assays were performed to determine the KD for each peptide labeled with a fluorescein tag following standard protocols using a Safire^2 plate reader (Tecan). The anisotropy values were normalized and the KD was determined using non-linear regression. All experiments were performed in triplicate and for at least three independent protein preparations.
as §1, with “nm. Several synthetic peptide substrates were used including a model peptide” for “nm.”
([…]) derived from a PKCε pseudo-substrate sequence with an alanine-serine change. We found this peptide to be an efficient substrate peptide for aPKC isozymes. Peptides from human Par3CR3 (residues 816-835) and F-X-R short […]
peptide ([…]) related to the Nishikawa and co-workers consensus were also used in the study (Nishikawa et al., 1997). For the kcat app and Km app reactions, the ATP concentration ranged from 0-200 µM, while the synthetic peptide substrates were kept constant at 200 µM to avoid product inhibition. The reactions were measured every two minutes for 30 minutes in a 384-well plate using a Safire 2 plate reader (Tecan). The kinetic constants were determined by fitting the data to Michaelis–Menten equation using the graphics program Prism (GraphPad Prism, version 5.0d, GraphPad Software). […]

[3] = system: Par6-PKCι-Cdc42 complex; assay: In vitro activity of activated Par complex (data not shown); type: biochemical
[4] = biological target: PKCι kinase domain, 248-596 (UniProt P41743); assay: fluorescence anisotropy, fluorescein-labelled peptide; settings: reference: unphosphorylated Par3CR3 peptide; sites S827
[5] = biological target: T2, human PKC-iota kinase domain, primed active form (PKCιKD-2P) (human, UniProt P41743 248-596, phosphothreonine at 412 and 564 (pT412, pT564)); assay: cell-based or functional assay
T2 sequence (looked up): T1 sequence (P41743 248-596 C595S) with S348C

[6] = biological target: T3, human PKC-iota kinase domain, primed active form (PKCιKD-2P) (human, UniProt P41743 248-596, phosphothreonine at 412 and 564 (pT412, pT564)); assay: FP
T3 chain: T1 sequence (P41743 248-596 C595S) with S348C

[7] = biological target: T3, human PKC-iota kinase domain, primed …; assay: FP
[8] = biological target: T4, human PKC-iota kinase domain, partially primed low-activity form (PKCιKD-1P) (human, UniProt P41743 248-596, partially primed: one of the two priming sites pT412 and pT564 phosphorylated); assay: FP
T4 chain: T1 sequence (P41743 248-596 C595S) with S348C

[9] = biological target: T2, human PKC-iota kinase domain, primed …; assay: fluorescence polarisation; fluorescence anisotropy of fluorescein-labelled peptide with PKCι kinase domain; Safire2 plate reader; anisotropy normalised, KD by non-linear regression; triplicate, at least three independent protein preparations; settings: both partners purified

Molecule: CSCC[C@H](NC(=O)[C@H](CO)NC(=O)[C@H](CCC(N)=O)NC(=O)[C@H](CCCNC(=N)N)NC(=O)CNC(=O)[C@H](Cc1ccccc1)NC(=O)CNC(=O)[C@H](CCC(=O)O)NC(=O)[C@H](CCCNC(=N)N)NC(=O)[C@H](CCC(N)=O)NC(=O)[C@H](Cc1ccccc1)NC(=O)[C@H](C)NC(=O)[C@@H](N)CC(C)C)C(=O)N[C@@H](CO)C(=O)N[C@@H](CCC(=O)O)C(=O)N[C@@H](CCCCN)C(=O)N[C@@H](CCCNC(=N)N)C(=O)N[C@H](C(=O)N[C@@H](CCCCN)C(=O)O)[C@@H](C)O [Par3CR3] (H-LAFQREGFGRQSMSEKRTK-OH; N-terminus and C-terminus assumed)
inhibition of activated Par complex (in words) [3]: potently inhibited

B1: human Par3 conserved region 3 peptide, residues 816-834 (Par3CR3) (peptide, UniProt Q8TEW0 816-834, looked up)
peptide: LAFQREGFGRQSMSEKRTK
modifications: also: fluorescein label (position not given here)
notes: also called wild-type Par3CR3; source: synthetic peptide
apparent IC50 of the block of phosphorylation of a model substrate peptide by PKCιKD-2P, in vitro kinase assay [5]: 450 nM
Kd [6]: 730 nM
Kd [7]: 410 nM
Kd [8]: 53600 nM
Kd [9]: 470 nM

Results, then the molecule that gave them:

inhibition of PKCι catalytic activity in vitro (in words) [1]: potently inhibit
Molecule: Kibra-derived peptide: Kibra-derived peptide (residues 919–978) with F-X-R motif anchor and K-R inhibitory motif (LRGSTIIRSKTFSPGPQSQYVCRLNRSDSDSSTLSKKPPFVRNSLERRSVRMKRPSSVKS)

inhibition of PKCι catalytic activity in vitro (in words) [1]: does not inhibit
phosphorylation as substrate by PKCι in vitro (in words) [2]: efficient PKCι substrate
Molecule: FKRQGSVRRR [F-X-Rshort peptide, artificial PKCι substrate resembling the aPKC consensus motif of Nishikawa et al]

fold change [4]: weaker
Molecule: Par3 CR3, 816-834 (from UniProt Q8TEW0) phospho-S827 Par3CR3 peptide

Kd [6]: 690 nM
Kd [9]: 970 nM
B2: Par3CR3 S827A mutant peptide (peptide, UniProt Q8TEW0 816-834, looked up)
peptide: LAFQREGFGRQAMSEKRTK
modifications: also: fluorescein label (position not given here)
notes: source: synthetic peptide
